In paper PMC5138414, “Structural Basis for Redox Regulation of Cytoplasmic and Chloroplastic Triosephosphate Isomerases from Arabidopsis thaliana” (Frontiers in Plant Science, 2016):
Each block holds one substance with its values, some of them ahead of it.

Legend:
Assay in all cases: SEC; analytical size-exclusion chromatography, Superdex 75 10/300GL, calibrated with Bio-Rad gel filtration standard, 0.5 mL/min, 100 mM TEA pH 7.4, 10 mM EDTA, 1 mM DTT; dimer of identical subunits
[1] = biological target: chloroplast triosephosphate isomerase from Arabidopsis thaliana, without the predicted chloroplast targeting sequence (Arabidopsis thaliana)
[2] = biological target: cytoplasmic triosephosphate isomerase from Arabidopsis thaliana (Arabidopsis thaliana) (UniProt P48491)
[3] = biological target: pdTPI-C15S (Arabidopsis thaliana)
[4] = biological target: pdTPI-C15S/C89S (Arabidopsis thaliana)
[5] = biological target: pdTPI-C89S (Arabidopsis thaliana)

stoichiometry N [1]: 2
Substance: chloroplast triosephosphate isomerase from Arabidopsis thaliana, without the predicted chloroplast targeting sequence (enzyme)

stoichiometry N [2]: 2
Substance: cytoplasmic triosephosphate isomerase from Arabidopsis thaliana (from UniProt P48491 1-254) (enzyme)

stoichiometry N [3]: 2
Substance: pdTPI-C15S (enzyme)

stoichiometry N [4]: 2
Substance: pdTPI-C15S/C89S (enzyme)

stoichiometry N [5]: 2
Substance: pdTPI-C89S (enzyme)
